Measurements taken from US20180087118.

T1: H-TKQTARK(Me3)STGGKAPR-OH (TR-15, H3 3-17 K9me3 peptide)
T1 chain: TKQTARKSTGGKAPR

B1: Human KDM4B 1-348 (His6-tagged, expressed in E. coli from pET28a) (protein)
chain: MGSEDHGAQNPSCKIMTFRPTMEEFKDFNKYVAYIESQGAHRAGLAKIIPPKEWKPRQTYDDIDDVVIPAPIQQVVTGQSGLFTQYNIQKKAMTVGEYRRLANSEKYCTPRHQDFDDLERKYWKNLTFVSPIYGADISGSLYDDDVAQWNIGSLRTILDMVERECGTIIEGVNTPYLYFGMWKTTFAWHTEDMDLYSINYLHFGEPKSWYAIPPEHGKRLERLAIGFFPGSSQGCDAFLRHKMTLISPIILKKYGIPFSRITQEAGEFMITFPYGYHAGFNHGFNCAESTNFATLRWIDYGKVATQCTCRKDMVKISMDVFVRILQPERYELWKQGKDLTVLDHTRPT
B2: Human KDM4A 1-347 (His6-tagged, expressed in E. coli from pET28a) (protein)
chain: MASESETLNPSARIMTFYPTMEEFRNFSRYIAYIESQGAHRAGLAKVVPPKEWKPRASYDDIDDLVIPAPIQQLVTGQSGLFTQYNIQKKAMTVREFRKIANSDKYCTPRYSEFEELERKYWKNLTFNPPIYGADVNGTLYEKHVDEWNIGRLRTILDLVEKESGITIEGVNTPYLYFGMWKTSFAWHTEDMDLYSINYLHFGEPKSWYSVPPEHGKRLERLAKGFFPGSAQSCEAFLRHKMTLISPLMLKKYGIPFDKVTQEAGEFMITFPYGYHAGFNHGFNCAESTNFATRRWIEYGKQAVLCSCRKDMVKISMDVFVRKFQPERYKLWKAGKDNTVIDHTLPT

Experiments:
[1] = target: T1, H-TKQTARK(Me3)STGGKAPR-OH (TR-15, H3 …)
[2] = target: H3 31-41 K36me3 peptide, P68431

Row | Protein | Km (µM), FDH-coupled demethylase assay [1] | Km (µM), FDH-coupled demethylase assay [2]
1 | B1 | 88.3 µM | 138 µM
2 | B2 | 92.5 µM | 170 µM
